Laboratory results reported in PMC5362899, “Structural insights into the nucleotide base specificity of P2X receptors” (Scientific Reports, 2017).

Molecular target: zebrafish P2X4 construct ΔP2X4-C (ΔN27/ΔC24/N78K/N187R) (zebrafish) (UniProt F8W463)
Assay: crystal structure; ΔP2X4-C (2 mg/ml) with 3 mM CTP; crystals grown at 4 °C by cross-seeding in 20-26% PEG 2000, 300 mM Mg(NO3)2, 100 mM Tris pH 8.0; 2.8 Å

“zebrafish P2X4 construct ΔP2X4-C (ΔN27/ΔC24/N78K/N187R) (from UniProt F8W463 28-365) (receptor)” gave a stoichiometry N of 3.
